Data on 7 substances can be found in patent US20120252698.

This series relates to T1, PhosFluor (the fluorescent protein having the amino acid sequence set forth in SEQ ID NO: 10).
T1 sequence: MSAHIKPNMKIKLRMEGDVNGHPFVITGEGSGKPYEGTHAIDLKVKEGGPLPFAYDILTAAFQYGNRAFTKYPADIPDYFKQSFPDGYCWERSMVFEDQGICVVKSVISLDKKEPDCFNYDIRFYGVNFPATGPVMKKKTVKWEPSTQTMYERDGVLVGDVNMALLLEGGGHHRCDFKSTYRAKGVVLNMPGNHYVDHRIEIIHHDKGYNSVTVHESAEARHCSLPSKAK

Chain of Akt1 (P31749 whole entry): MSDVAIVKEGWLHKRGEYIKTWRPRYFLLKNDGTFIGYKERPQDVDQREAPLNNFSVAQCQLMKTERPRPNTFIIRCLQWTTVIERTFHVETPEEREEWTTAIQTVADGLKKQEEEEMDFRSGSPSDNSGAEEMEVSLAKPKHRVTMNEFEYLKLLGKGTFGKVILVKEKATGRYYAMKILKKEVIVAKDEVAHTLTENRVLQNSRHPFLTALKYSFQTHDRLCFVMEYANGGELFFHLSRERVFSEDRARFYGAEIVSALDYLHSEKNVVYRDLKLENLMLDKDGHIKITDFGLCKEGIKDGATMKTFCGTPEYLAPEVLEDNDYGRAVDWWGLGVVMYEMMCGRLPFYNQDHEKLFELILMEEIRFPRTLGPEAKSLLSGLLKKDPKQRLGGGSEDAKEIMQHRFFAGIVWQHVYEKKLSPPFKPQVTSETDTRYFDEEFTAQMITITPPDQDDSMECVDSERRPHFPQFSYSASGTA

As to Src, the “SDS-PAGE and immunoblot of PhosFluor incubated with kinase (total protein, phospho-tyrosine, mobility shift)” value is “PhosFluor is an avid substrate for PKC and Src”.

With protein kinase C (PKC), the “SDS-PAGE and immunoblot of PhosFluor incubated with kinase (total protein, phospho-tyrosine, mobility shift)” value is “PhosFluor is an avid substrate for PKC and Src”; the “Western blot analyses of phosphorylation” value is “serine and threonine sites on PhosFluor are phosphorylated by PKA, PKC, mitogen-activated protein kinase (MAPK), cell division control protein 2 (cdc2), and Akt1”; the “emission spectrum of PhosFluor” value is on record as “A marked shift in the emission spectrum of PhosFluor was observed when this molecule was incubated with PKA, PKC or Akt1”; the “upward shift of apparent molecular weight on SDS-PAGE” value was “when phosphorylated by PKC, multiple higher molecular weight species of PhosFluor were resolved by SDS-PAGE”.

For Akt1, the “Western blot analyses of phosphorylation” value is “serine and threonine sites on PhosFluor are phosphorylated by PKA, PKC, mitogen-activated protein kinase (MAPK), cell division control protein 2 (cdc2), and Akt1”; the “emission spectrum of PhosFluor” value was “A marked shift in the emission spectrum of PhosFluor was observed when this molecule was incubated with PKA, PKC or Akt1”; the “excitation spectrum of PhosFluor” value is “the excitation spectrum of PhosFluor was dramatically altered upon phosphorylation by different protein kinases, including Akt1”.

As for mitogen-activated protein kinase (MAPK), the “Western blot analyses of phosphorylation” value was “serine and threonine sites on PhosFluor are phosphorylated by PKA, PKC, mitogen-activated protein kinase (MAPK), cell division control protein 2 (cdc2), and Akt1”; the “fluorescence intensity of PhosFluor incubated with kinase” value was “The fluorescence intensity of PhosFluor also increased above background levels when the protein was incubated with cdc2 and MAPK (data not shown)”.

With cell division control protein 2 (cdc2), the “Western blot analyses of phosphorylation” value is “serine and threonine sites on PhosFluor are phosphorylated by PKA, PKC, mitogen-activated protein kinase (MAPK), cell division control protein 2 (cdc2), and Akt1”; the “fluorescence intensity of PhosFluor incubated with kinase” value was “The fluorescence intensity of PhosFluor also increased above background levels when the protein was incubated with cdc2 and MAPK (data not shown)”.

Take alkaline phosphatase: the “fluorescence intensity of PhosFluor over time” value is recorded as “This treatment virtually abolished the increase in fluorescence intensity of PhosFluor over time”.

Turning to PKA, the “Western blot analyses of phosphorylation” value was “serine and threonine sites on PhosFluor are phosphorylated by PKA, PKC, mitogen-activated protein kinase (MAPK), cell division control protein 2 (cdc2), and Akt1”; the “emission spectrum of PhosFluor” value was “A marked shift in the emission spectrum of PhosFluor was observed when this molecule was incubated with PKA, PKC or Akt1”; the “upward shift of apparent molecular weight on SDS-PAGE” value is given as “To a lesser extent, higher molecular weight species were also observed upon phosphorylation by PKA”.
